Experimental findings from publication PMC12480952 (Nature Communications, 2025) are described below.

The labels stand for the following.
B1: BCL-2ΔLΔC WT (domain or fragment, human)
chain: MAHAGRTGYDNREIVMKYIHYKLSQRGYEWDAGDDVEENRTEAPEGTESEVVHLTLRQAGDDFSRRYRRDFAEMSSQLHLTPFTARGRFATVVEELFRDGVNWGRIVAFFEFGGVMCVESVNREMSPLVDNIALWMTEYLNRHLHTWIQDNGGWDAFVELYGPSMRA
B2: BCL-2ΔLΔC D103Y (domain or fragment, human)
chain: MAHAGRTGYDNREIVMKYIHYKLSQRGYEWDAGDDVEENRTEAPEGTESEVVHLTLRQAGDYFSRRYRRDFAEMSSQLHLTPFTARGRFATVVEELFRDGVNWGRIVAFFEFGGVMCVESVNREMSPLVDNIALWMTEYLNRHLHTWIQDNGGWDAFVELYGPSMRA
B3: BCL-2ΔLΔC G101V (domain or fragment, human)
chain: MAHAGRTGYDNREIVMKYIHYKLSQRGYEWDAGDDVEENRTEAPEGTESEVVHLTLRQAVDDFSRRYRRDFAEMSSQLHLTPFTARGRFATVVEELFRDGVNWGRIVAFFEFGGVMCVESVNREMSPLVDNIALWMTEYLNRHLHTWIQDNGGWDAFVELYGPSMRA
B4: BCL-2ΔLΔC R129L (domain or fragment, human)
chain: MAHAGRTGYDNREIVMKYIHYKLSQRGYEWDAGDDVEENRTEAPEGTESEVVHLTLRQAGDDFSRRYRRDFAEMSSQLHLTPFTARGLFATVVEELFRDGVNWGRIVAFFEFGGVMCVESVNREMSPLVDNIALWMTEYLNRHLHTWIQDNGGWDAFVELYGPSMRA
B5: BCL-2ΔLΔC F104L (domain or fragment, human)
chain: MAHAGRTGYDNREIVMKYIHYKLSQRGYEWDAGDDVEENRTEAPEGTESEVVHLTLRQAGDDLSRRYRRDFAEMSSQLHLTPFTARGRFATVVEELFRDGVNWGRIVAFFEFGGVMCVESVNREMSPLVDNIALWMTEYLNRHLHTWIQDNGGWDAFVELYGPSMRA
B6: BCL-2ΔLΔC A113G (domain or fragment, human)
chain: MAHAGRTGYDNREIVMKYIHYKLSQRGYEWDAGDDVEENRTEAPEGTESEVVHLTLRQAGDDFSRRYRRDFGEMSSQLHLTPFTARGRFATVVEELFRDGVNWGRIVAFFEFGGVMCVESVNREMSPLVDNIALWMTEYLNRHLHTWIQDNGGWDAFVELYGPSMRA
B7: BCL-2ΔLΔC V156D (domain or fragment, human)
chain: MAHAGRTGYDNREIVMKYIHYKLSQRGYEWDAGDDVEENRTEAPEGTESEVVHLTLRQAGDDFSRRYRRDFAEMSSQLHLTPFTARGRFATVVEELFRDGVNWGRIVAFFEFGGDMCVESVNREMSPLVDNIALWMTEYLNRHLHTWIQDNGGWDAFVELYGPSMRA

The term EC90 denotes the concentration needed for an effect of 90%. Read a high EC90 as a need for much substance.

The test deals with FITC-BIM BH3 (FITC at the N-terminus). Briefly: fluorescence polarisation. In general terms: In fluorescence polarisation assays a small probe gives low polarisation when free and higher when bound to something large.
B1: it took 8.6 nM to reach the 90% level (EC90).
Consider B2, for which the EC90 amounted to 21 nM.
B3 returned an EC90 of 5.8 nM. Compared with the last molecule, the EC90 is about 3.6-fold lower.
B4: the EC90 is 8.7 nM.
To B5 belongs 1.6 nM; to B6, 23 nM; to B7, 17 nM.
